In patent publication US20150147318A1 (ZOETIS SERVICES, published 2015):

Tests used:
[1] = target: T1, recombinant canine Nerve Growth Factor (Canis lupus familiaris NGF) (canine (Canis lupus familiaris), UniProt Q29074 110-229 (pig entry), limits assumed); experiment: cell-based or functional assay
T1 chain: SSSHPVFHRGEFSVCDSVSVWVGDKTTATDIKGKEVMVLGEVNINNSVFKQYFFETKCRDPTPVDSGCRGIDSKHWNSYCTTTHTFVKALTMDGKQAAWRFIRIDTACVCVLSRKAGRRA

[2] = target: T1, recombinant canine Nerve Growth Factor …; experiment: method not stated; recombinant canine NGF
[3] = target: T1, recombinant canine Nerve Growth Factor …; experiment: SPR trkA inhibition: mAb pre-incubated with NGF, binding of NGF to trkA measured in RU
[4] = target: T1, recombinant canine Nerve Growth Factor …; experiment: SPR, Biacore T100, dog NGF; run 11/24
[5] = target: T1, recombinant canine Nerve Growth Factor …; experiment: SPR, Biacore T100, dog NGF; run 11/29
[6] = target: T1, recombinant canine Nerve Growth Factor …; experiment: SPR, Biacore T100, dog NGF; run 11/22

B1: murine anti-NGF monoclonal antibody RN911 (antibody, V domains shown)
VH: QVQLKESGPGLVAPSQSLSITCTVSGFSLIGYDINWVRQPPGKGLEWLGMIWGDGTTDYNSALKSRLSISKDNSKSQVFLKMNSLRTDDTATYSCARGGYYYGTSYYFDYWGQGTTLTVSS
VL: DIQMTQTTSSLSASLGDRVTISCRASQDISNHLNWYQQKPDGTVKLLIYYISRFHSGVPSRFSGSGSGTDYSLTISNLEQEDIATYFCQQSKTLPYTFGGGTKLEIKR
notes: Mouse mAb; also called MU-RN911
EC50, pERK inhibition, PC-12 (Rat Neuronal), pre-incubation 1 hour, 2/23/11 (RN911) [1]: 0.67 nM
EC50, pERK inhibition, PC-12 (Rat Neuronal), pre-incubation 1 hour, 3/26/11 (RN911) [1]: 0.46 nM
EC50, pERK inhibition, huTrkA (CHO), pre-incubation 1 hour, 3/26/11 (RN911) [1]: 0.47 nM
EC50, pERK inhibition, huTrkA (CHO), pre-incubation 1 hour, 3/31/11 (RN911) [1]: 0.62 nM
EC50, pERK inhibition, huTrkA (CHO), pre-incubation 6 hour, 3/31/11 (RN911) [1]: 0.57 nM
Kd [2]: 0.755 nM
Ki [3]: 4.2 nM

B2: LTM construct 45 (HC Y100W, LC H32N) (antibody, V domains shown)
VH: EVQLVESGGDLARPGGSLKLSCVVSGFSLIGYDINWVRQAPGKGLQWVTMIWGDGTTDYNSALKSRFTVSRDNAMNTVYLQMNSLRVEDTAVYYCARGGWYYGTSYYFDYWGQGTLVTVSS
VL: DIVMTQTPLSLSVSPGETASISCRASQDISNNLNWFRQKPGQSPQRLIYYISRFHSGVPDRFSGSGSGTDFTLRISRVEADDTGVYYCQQSKTLPYTFGAGTKLEIK
notes: Point mutant of canE3M65 as full IgG; Constant regions are not restated
Kd [4]: 2.1 nM
Kd [5]: 4.35 nM

B3: LTM109 (HC Y101W, G103A; LC D28S, H32N, K92H) (antibody, V domains shown)
VH: EVQLVESGGDLARPGGSLKLSCVVSGFSLIGYDINWVRQAPGKGLQWVTMIWGDGTTDYNSALKSRFTVSRDNAMNTVYLQMNSLRVEDTAVYYCARGGYWYATSYYFDYWGQGTLVTVSS
VL: DIVMTQTPLSLSVSPGETASISCRASQSISNNLNWFRQKPGQSPQRLIYYISRFHSGVPDRFSGSGSGTDFTLRISRVEADDTGVYYCQQSHTLPYTFGAGTKLEIK
notes: Full IgG; constant regions are not restated; also called CAN-LTM109-VH / CAN-LTM109-VL
Kd [4]: 0.515 nM
Kd [5]: 0.748 nM

B4: LTM construct 34 (HC Y100W, LC D28S, H32N) (antibody, V domains shown)
VH: EVQLVESGGDLARPGGSLKLSCVVSGFSLIGYDINWVRQAPGKGLQWVTMIWGDGTTDYNSALKSRFTVSRDNAMNTVYLQMNSLRVEDTAVYYCARGGWYYGTSYYFDYWGQGTLVTVSS
VL: DIVMTQTPLSLSVSPGETASISCRASQSISNNLNWFRQKPGQSPQRLIYYISRFHSGVPDRFSGSGSGTDFTLRISRVEADDTGVYYCQQSKTLPYTFGAGTKLEIK
notes: as for B2
Kd [6]: 0.639 nM
Kd [5]: 0.885 nM

B5: LTM construct 35 (HC Y100W, LC D28S, H32N, K92H) (antibody, V domains shown)
VH: EVQLVESGGDLARPGGSLKLSCVVSGFSLIGYDINWVRQAPGKGLQWVTMIWGDGTTDYNSALKSRFTVSRDNAMNTVYLQMNSLRVEDTAVYYCARGGWYYGTSYYFDYWGQGTLVTVSS
VL: DIVMTQTPLSLSVSPGETASISCRASQSISNNLNWFRQKPGQSPQRLIYYISRFHSGVPDRFSGSGSGTDFTLRISRVEADDTGVYYCQQSHTLPYTFGAGTKLEIK
notes: as for B2
Kd [6]: 0.237 nM
Kd [5]: 0.81 nM

B6: LTM construct 43 (HC Y100W, LC K92H) (antibody, V domains shown)
VH: EVQLVESGGDLARPGGSLKLSCVVSGFSLIGYDINWVRQAPGKGLQWVTMIWGDGTTDYNSALKSRFTVSRDNAMNTVYLQMNSLRVEDTAVYYCARGGWYYGTSYYFDYWGQGTLVTVSS
VL: DIVMTQTPLSLSVSPGETASISCRASQDISNHLNWFRQKPGQSPQRLIYYISRFHSGVPDRFSGSGSGTDFTLRISRVEADDTGVYYCQQSHTLPYTFGAGTKLEIK
notes: as for B2
Kd [4]: 5.67 nM

B7: LTM construct 44 (HC Y100W, LC S91E) (antibody, V domains shown)
VH: EVQLVESGGDLARPGGSLKLSCVVSGFSLIGYDINWVRQAPGKGLQWVTMIWGDGTTDYNSALKSRFTVSRDNAMNTVYLQMNSLRVEDTAVYYCARGGWYYGTSYYFDYWGQGTLVTVSS
VL: DIVMTQTPLSLSVSPGETASISCRASQDISNHLNWFRQKPGQSPQRLIYYISRFHSGVPDRFSGSGSGTDFTLRISRVEADDTGVYYCQQEKTLPYTFGAGTKLEIK
notes: as for B2
binding result [4]: no binding

B8: SSM66 (CAN-SSM66-VH, CAN-SSME3M-VL) (antibody, V domains shown)
VH: EVQLVESGGDLARPGGSLKLSCVVSGFSLIEYDINWVRQAPGKGLQWVTMIWGTGTTDYNSALKSRFTVSRDNAMNTVYLQMNSLRVEDTAVYYCARGGYWYATSYYFDYWGQGTLVTVSS
VL: DIVMTQTPLSLSVSPGETASISCRASQSISNNLNWFRQKPGQSPQRLIYYISSFHSGVPDRFSGSGSGTDFTLRISRVEADDTGVYYCQQSHTLPYTFGAGTKLEIK
EC50, pERK inhibition, PC-12 (Rat Neuronal), pre-incubation 1 hour, 2/23/11 (SSM66) [1]: 1.45 nM
EC50, pERK inhibition, PC-12 (Rat Neuronal), pre-incubation 1 hour, 3/26/11 (SSM66) [1]: 0.71 nM
EC50, pERK inhibition, huTrkA (CHO), pre-incubation 1 hour, 3/26/11 (SSM66) [1]: 0.76 nM
EC50, pERK inhibition, huTrkA (CHO), pre-incubation 1 hour, 3/31/11 (SSM66) [1]: 0.94 nM
EC50, pERK inhibition, huTrkA (CHO), pre-incubation 6 hour, 3/31/11 (SSM66) [1]: 0.69 nM
Fold Potency Difference versus RN911, pERK inhibition, PC-12 (Rat Neuronal), pre-incubation 1 hour, 2/23/11 (SSM66) [1]: 2.2 fold
Fold Potency Difference versus RN911, pERK inhibition, PC-12 (Rat Neuronal), pre-incubation 1 hour, 3/26/11 (SSM66) [1]: 1.5 fold
Fold Potency Difference versus RN911, pERK inhibition, huTrkA (CHO), pre-incubation 1 hour, 3/26/11 (SSM66) [1]: 1.6 fold
Fold Potency Difference versus RN911, pERK inhibition, huTrkA (CHO), pre-incubation 1 hour, 3/31/11 (SSM66) [1]: 1.5 fold
Fold Potency Difference versus RN911, pERK inhibition, huTrkA (CHO), pre-incubation 6 hour, 3/31/11 (SSM66) [1]: 1.2 fold
Ki [3]: 4.5 nM
